B1: Thermotoga maritima TsaD (natural protein, UniProt Q9WXZ2 1-327, looked up)
chain: MRVLGIETSCDETAVAVLDDGKNVVVNFTVSQIEVHQKFGGVVPEVAARHHLKNLPILLKKAFEKVPPETVDVVAATYGPGLIGALLVGLSAAKGLAISLEKPFVGVNHVEAHVQAVFLANPDLKPPLVVLMVSGGHTQLMKVDEDYSMEVLGETLDDSAGEAFDKVARLLGLGYPGGPVIDRVAKKGDPEKYSFPRPMLDDDSYNFSFAGLKTSVLYFLQREKGYKVEDVAASFQKAVVDILVEKTFRLARNLGIRKIAFVGGVAANSMLREEVRKRAERWNYEVFFPPLELCTDNALMVAKAGYEKAKRGMFSPLSLNADPNLNV
B2: Thermotoga maritima TsaB (natural protein, UniProt Q9WZX7 1-206, looked up)
chain: MNVLALDTSQRIRIGLRKGEDLFEISYTGEKKHAEILPVVVKKLLDELDLKVKDLDVVGVGIGPGGLTGLRVGIATVVGLVSPYDIPVAPLNSFEMTAKSCPADGVVLVARRARKGYHYCAVYLKDKGLNPLKEPSVVSDEELEEITKEFSPKIVLKDDLLISPAVLVEESERLFREKKTIHYYEIEPLYLQKSIAELNWEKKKRG

How the values were obtained:
[1] = target: the molecule itself; experiment: SEC
[2] = target: B1; experiment: native gel or EMSA

Binder | stoichiometry N [1] | binding result [2]
B1 | 2 | –
B2 | 2 | binds
